Test results taken from US20250326825A1, “ANTI-FABP4 ANTIBODIES AND THEIR USES” (THE HONG KONG POLYTECHNIC UNIVERSITY, priority 2024, published 2025).

Columns and labels:
[1] = tested on: hepatocellular carcinoma cells; assay: Sphere formation / limiting dilution sphere analysis (self-renewal); format: cell-based, human
Procedure: Sphere formation assay—Three to five hundred cells of PLC/PRF/5, Huh7 and hepatocellular carcinoma organoids (HK-HCC P1 and HCC #23) were seeded to 24-well plates coated with poly (2-hydroxyethyl methacrylate) (polyHEMA, Sigma Aldrich). Cells were grown in 500 μl of either conditioned media or serum-free 0.25% methylcellulose (Sigma-Aldrich) DMEM/F12 medium supplemented with 4 μg/mL insulin (Sigma-Aldrich), B27 (Invitrogen) and recombinant human FABP4 (rhFABP4, Biovision) at a concentration of either 20 ng/ml or 100 ng/ml. The number of tumourspheres (diameter larger than 100 μm) was counted under microscope after 8 to 12 days.
Limiting dilution assay—Parental or shITGB1 PLC/PRF/5 and Huh7 cells were cultured in a 96-well plate coated with polyHEMA with 200 μl serum-free 0.25% methylcellulose DMEM/F12 medium supplemented with 4 μg/mL insulin, B27 and rhFABP4 when appropriate. Sphere formation was scored after 8 to 12 days under a phase contrast microscope. The frequency of sphere-forming cell was calculated accordingly using an extreme limiting dilution algorithm (ELDA).

[2] = tested on: hepatocellular carcinoma cells; assay: Cancer stem cell functional assays (overall); format: cell-based, human; settings: hepatocellular carcinoma cells in ADCM (FIG. 9A to 9D)
Procedure: In summary, the methods shown herein were used to evaluate the interaction between differentiated adipocytes and HCC cells using a co-culture system. The conditioned medium of the adipocytes was profiled using Orbitrap liquid chromatography mass spectrometry. The functional role of FABP4 in the regulation of liver cancer stem cells was evaluated by various cancer stem cells functional assays. In vivo functional characterization of FABP4 was performed in Fabp4 knockout mice. Molecular pathways mediating phenotypic alterations were identified using mass spectrometry, RNA sequencing analysis, and pathway analysis. The therapeutic efficacy of monoclonal neutralising antibody against FABP4 was evaluated in two mouse models, a hepatocellular carcinoma (HCC) xenograft model and a MASLD-HCC model.

[3] = limits clinical use; cited from earlier work
PLC/PRF/5 cells = assay: In vivo tumorigenicity assay (limiting dilution), subcutaneous engraftment of pretreated PLC/PRF/5 cells; parameters: species or system mouse (mouse (mouse (human cell xenograft) cell xenograft) cell xenograft); settings: PLC/PRF/5 pretreated with rhFABP4 at 100 ng/ml, NOD/SCID mice
Procedure: (§1) In vivo tumorigenicity assay—In vivo evaluation of tumorigenicity was performed with either male non-obese diabetic/severe combined immunodeficient (NOD/SCID) or NOD/SCID gamma mice, 4 to 6 weeks of age, by induction of tumour xenografts. Cells were suspended in 1:1 culture medium and BD Matrigel Matrix (BD Biosciences) and subcutaneously injected into the flanks of the mice, which were kept under observation. Briefly, each mouse received two injections of cells in both flanks. The cells were pretreated with either rhFABP4 (100 ng/ml) or ADCM for 24 hours, and, with their control group, were injected into NOD/SCID and NOD/SCID gamma mice, respectively. Tumours were harvested at the end of the experiment for documentation. Tumour-initiating cell frequency was calculated using Extreme Limiting Dilution Analysis (ELDA) software. No specific randomization method was used. Sample size of animals was chosen based on p-values. […] Mice were sacrificed if the percentage of body weight loss is greater than 20% including the tumour mass.

Huh7 cells = assay: In vivo tumorigenicity assay (limiting dilution), subcutaneous engraftment of pretreated Huh7 cells; parameters: species or system mouse xenograft; settings: Huh7 pretreated with rhFABP4 at 100 ng/ml, NOD/SCID mice
Procedure: as §1

[4] = tested on: hepatocellular carcinoma cells; assay: Migration and invasion transwell assays; format: cell-based, human; settings: rhFABP4 (FIG. 2G)
Procedure: Migration and invasion assays—Migration assays were performed using polycarbonate membrane transwell inserts with pore size of 8 μm (Millipore). Invasion assays were performed using self-coated Matrigel (BD Biosciences) transwell inserts. Hepatocellular carcinoma cell lines (PLC/PRF/5 and Huh7) or patient-derived organoids (HK-HCC P1 and HCC #23) in serum-free medium were seeded in upper chamber, while the lower chamber was supplemented with either ADCM or 100 ng/mL rhFABP4 in serum-free medium as a chemoattractant. Serum-free DMEM was used as a negative control. Cells were incubated in humidified incubation at 37° C. for 48 hours. The transwell membranes were fixed with methanol and stained with 1% crystal violet. The membranes were cleaned and air-dried. Photographs of five randomly selected fields of the fixed cells were captured and the cells were counted using ImageJ.

[5] = tested on: hepatocellular carcinoma cells; assay: Annexin-V apoptosis assay (drug resistance to doxorubicin or sorafenib); format: cell-based, human; settings: rhFABP4 pretreatment (FIG. 2H)
Procedure: Annexin-V apoptosis assay—Cells were stained by FITC-conjugated Annexin-V (BioVision) and propidium iodide (PI) (Invitrogen) in Annexin-V binding buffer (BD Biosciences) at room temperature for 30 minutes. Apoptosis percentage was determined using BD Accuri C6 flow cytometer and FACSDiva software (BD Biosciences).

[6] = tested on: hepatocellular carcinoma cells; assay: Flow cytometric analysis of liver CSC markers; format: cell-based, human; settings: rhFABP4 20 ng/ml and 100 ng/ml (FIG. 2F)
Procedure: Flow cytometric analysis—Cells were stained by Phycoerythrin (PE)-conjugated CD47 and CD90 antibodies (#536046 & #555596, BD Biosciences) in PBS with 2% FBS at 4° C. for 30 to 60 minutes. Isotype-matched mouse immunoglobulins served as controls. Samples were analysed using BD Accuri C6 flow cytometer and FACSDiva software (BD Biosciences).

[7] = tested on: PI3K/AKT/β-catenin signalling; assay: Western blot of AKT/GSK3β/β-catenin signalling in hepatocellular carcinoma cells; format: cell-based, human; settings: ADCM or rhFABP4 treatment (FIG. 5D)
Excerpt: Western blot analysis—Whole cell lysates were extracted using either NETN buffer supplemented with protease inhibitor cocktail or direct lysis. Protein lysate was separated by SDS-polyacrylamide gel electrophoresis (SDS-PAGE) and transferred to polyvinylidene difluoride membrane (Millipore) for western blot analyses. Primary antibodies FABP4[EPR3579](1:1000, ab92501, Abcam), pAKT(Ser473) (D9E), pGSK3β(Ser9) (D3A4), AKT and β-catenin (D10A8) (1:1000, #4060S, #9322S, #9272S & #8480S, Cell Signaling Technology), GSK3β(clone 7) (1:1000, #610202, clone 7, BD Transduction Laboratories), DDK (OTI4C5) (1:1000,TA50011-100, Origene), ITGB1 (1:1000, 12594-1-AP, Proteintech) and β-ACTIN (AC-74) (1:5000, #A5316, Sigma Aldrich) were incubated at 4° C. overnight. After washing, the membrane was incubated with horseradish peroxidase-conjugated anti-mouse or rabbit antibody (GE HealthCare). The signals were visualized using the enhanced chemiluminescence method. Blot images were quantified by densitometry using ImageJ software. The protein expression was normalized to β-actin and expressed as fold change relative to respective controls.

β-catenin = assay: Beta-catenin TCF binding luciferase (TOP/FOP) reporter assay; format: cell-based, human; settings: ADCM or rhFABP4 for 24 hours (FIG. 5E)
Excerpt: Beta-catenin TCF binding luciferase reporter assay—β-catenin activity was examined using luciferase reporter assay of TCF/LEF-dependent transcription (TOP/FOPFLASH reporter assay). Either firefly luciferase pSuper8XTOPflash or pSuper8XFOPflash constructs (gifts from Dr. Moon R, University of Washington, USA), together with Renilla luciferase construct pRL-CMV (Promega, Madison, WI, USA) for normalization of transfection efficiency, were transfected using Lipofectamine 2000. Luciferase activities were assayed using Dual-Luciferase Reporter Assay System (Promega) according to manufacturer's protocol.

[8] = tested on: hepatocellular carcinoma patient-derived organoids (HK-HCC P1 and HCC #23); assay: Hepatocellular carcinoma patient-derived organoid assays; format: cell-based, human
Excerpt: Hepatocellular carcinoma patient-derived organoids and culture conditions—Hepatocellular carcinoma tissue was obtained from patients undergoing hepatectomy at Queen Mary Hospital, Hong Kong. Samples were collected from patients who had not received any previous local or systemic treatment prior to operation. For organoid cultures, cells were isolated and cultured according to protocol. Hepatocellular carcinoma patient-derived organoids labelled HCC #23 was gift from Dr. Meritxell Huch of The Gudon Institute at the University of Cambridge.
Cell viability assay—Cell viability of organoid cultures treated with specified concentrations of rhFABP4 for 6 days was evaluated using CellTiter-Glo® Luminescent Cell Viability Assay (Promega) according to manufacturer's protocol.
Sphere formation assay—Three to five hundred cells of PLC/PRF/5, Huh7 and hepatocellular carcinoma organoids (HK-HCC P1 and HCC #23) were seeded to 24-well plates coated with poly (2-hydroxyethyl methacrylate) (polyHEMA, Sigma Aldrich). […] The number of tumourspheres (diameter larger than 100 μm) was counted under microscope after 8 to 12 days.
Migration and invasion assays—Migration assays were performed using polycarbonate membrane transwell inserts with pore size of 8 μm (Millipore). […] Photographs of five randomly selected fields of the fixed cells were captured and the cells were counted using ImageJ.

ITGB1 = biological target: T1, ITGB1 (Homo sapiens, UniProt P05556); assay: Mass spectrometry / coimmunoprecipitation of FABP4 binding partner; settings: biotin-labelled rhFABP4, Huh7 membrane surface
T1 construct: endogenous in cells; host or cells: Huh7
Procedure: Biotinylation of rhFABP4 and Streptavidin capturing of membrane protein—rhFABP4 was biotin-labelled and crosslinked with sulfosuccinimidyl-2-[6-(biotinamido)-2-(p-azidobenzamido) hyxanoamido]ethyl-1,3′-ithiopropionate) (Sulfo-SBED, A39260, Thermo Fisher Scientific) according to manufacturer's instructions. In brief, 50 μg of rhFABP4 (#4504, BioVision) was incubated with 1 mg of dissolved Sulfo-SBED at room temperature for 30 minutes. The reaction mixture was desalted using Amicon® Ultra-0.5 centrifugal filter device with a 3,000 Molecular Weight Cut Off (Millipore, Germany). The desalted biotinylated rhFABP4 was incubated in PBS with adherent Huh7 cells at room temperature for 10 minutes. The cell surface proteins interacting with biotinylated rhFAPB4 was captured by the photoreactive aryl azide moiety using long wave-UV at 360 nm. The labelled proteins were isolated by NeutrAvidin Agarose slurry and reduced using Pierce™ Cell Surface Protein Biotinylation and Isolation Kit (#A44390, Thermo Fisher Scientific). The interacting rhFABP4-surface protein complex was isolated, and the disulfide bond reduced, resulting in the biotin label being transferred to the interacting proteins. […]

T1 sequence (P05556 21-798): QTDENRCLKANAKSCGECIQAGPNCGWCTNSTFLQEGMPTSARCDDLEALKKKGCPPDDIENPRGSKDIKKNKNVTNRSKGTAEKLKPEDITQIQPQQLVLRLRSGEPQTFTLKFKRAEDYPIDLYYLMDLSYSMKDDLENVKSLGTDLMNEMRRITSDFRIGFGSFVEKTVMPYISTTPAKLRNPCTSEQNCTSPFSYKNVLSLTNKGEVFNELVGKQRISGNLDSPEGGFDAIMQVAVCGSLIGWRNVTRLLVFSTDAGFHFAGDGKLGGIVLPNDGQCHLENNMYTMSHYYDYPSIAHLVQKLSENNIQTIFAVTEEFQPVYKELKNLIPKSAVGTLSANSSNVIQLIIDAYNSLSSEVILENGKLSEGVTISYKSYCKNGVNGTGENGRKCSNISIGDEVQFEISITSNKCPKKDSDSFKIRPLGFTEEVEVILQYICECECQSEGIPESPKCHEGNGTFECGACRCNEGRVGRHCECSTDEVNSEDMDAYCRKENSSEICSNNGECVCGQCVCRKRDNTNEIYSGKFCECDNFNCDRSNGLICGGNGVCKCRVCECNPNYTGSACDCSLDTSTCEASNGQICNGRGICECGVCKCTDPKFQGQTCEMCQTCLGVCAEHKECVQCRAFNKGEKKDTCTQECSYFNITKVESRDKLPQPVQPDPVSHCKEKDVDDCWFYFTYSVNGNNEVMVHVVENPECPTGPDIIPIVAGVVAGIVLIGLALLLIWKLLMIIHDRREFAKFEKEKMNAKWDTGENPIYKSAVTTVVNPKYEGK

CCc1c(-c2ccccc2)c(-c2ccccc2)nn1-c1ccccc1-c1cccc(OCC(=O)O)c1 [BMS-309403]
Enhancing self-renewal ability of ADCM (tumoursphere formation) ([1]; PLC/PRF/5, ADCM, inhibitor at 1 μM): suppressed | Effects of ADCM on liver cancer stem cell properties [2]: attenuation | Side effects [3]: acute cardiac depressant effect

B1: rhFABP4: recombinant human FABP4 protein (Biovision) (protein, UniProt P15090 2-132, looked up)
Fatty acid-binding protein, …: CDAFVGTWKLVSSENFDDYMKEVGVGFATRKVAGMAKPNMIISVNGDVITIKSESTFKNTEISFILGQEFDEVTADDRKVKSTITLDGGVLVHVQKWDGKSTTIKRKREDDKLVVECVMKGVTSTRVYERA
Estimated CSC frequency (PLC/PRF/5 cells; extreme limiting dilution): 1/2108 | Tumor incidence rate, 1 × 10^3 cells (PLC/PRF/5 cells; subcutaneous, 1 × 10^3 cells): 3/5 | Tumor incidence rate, 5 × 10^3 cells (PLC/PRF/5 cells; subcutaneous, 5 × 10^3 cells): 4/5 | Estimated CSC frequency (Huh7 cells; extreme limiting dilution): 1/3404 | Tumor incidence rate, 1 × 10^3 cells (Huh7 cells; subcutaneous, 1 × 10^3 cells): 3/5 | Tumor incidence rate, 1 × 10^4 cells (Huh7 cells; subcutaneous, 1 × 10^4 cells): 4/5 | Tumor incidence rate, 5 × 10^3 cells (Huh7 cells; subcutaneous, 5 × 10^3 cells): 4/5 | Self-renewal (sphere formation) ([1]; rhFABP4 20 ng/ml and 100 ng/ml (FIG. 2D)): promote | Cell migration and invasion [4]: promote | Resistance to doxorubicin and sorafenib treatment [5]: promote | Expression of liver CSC markers [6]: promote | AKT phosphorylation at Ser473 [7]: activated | GSK3β phosphorylation at Ser9 [7]: inactivation | Total β-catenin [7]: accumulation | Transactivation of β-catenin (TOP/FOP reporter) (β-catenin): enhanced | Self-renewal of patient-derived organoids ([8]; rhFABP4 (FIG. 4B)): confer self-renewal | Size of organoids and their proliferative rate ([8]; rhFABP4, 6 days, CellTiter-Glo (FIG. 4C)): increase | Interaction with membrane receptor ITGB1 (ITGB1): directly interacts
